Data: patent publication US20240383982A1 (Genmab, published 2024)

Assays:
[1] = biological target: T1, human B7H4, full length, on cells (human, UniProt Q7Z7D3 25-282); experiment: flow cytometry on MDA-MB-468 tumor cells [panel MDA-MB-468]
T1 construct: Uniprot Q7Z7D3; Used for transfected HEK cells and for the B7H4-expressing human tumor cell lines (endogenous B7H4); also called VTCN1
T1 sequence: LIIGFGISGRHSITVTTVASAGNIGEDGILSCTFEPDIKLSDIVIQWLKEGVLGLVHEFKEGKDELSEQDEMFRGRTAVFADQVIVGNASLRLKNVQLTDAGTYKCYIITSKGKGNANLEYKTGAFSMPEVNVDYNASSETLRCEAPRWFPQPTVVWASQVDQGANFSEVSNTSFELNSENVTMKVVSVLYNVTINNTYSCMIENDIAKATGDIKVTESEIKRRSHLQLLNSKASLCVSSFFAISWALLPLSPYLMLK
Protocol: (§1) Cells (3×10⁴ cells/well) were incubated in polystyrene 96-well round-bottom plates (Greiner bio-one, cat. no. 650180) with serial dilutions of antibodies (ranging from 0.000458 to 30 μg/mL in 4-fold dilution steps) in 100 μL PBS/0.1% BSA/0.02% azide (staining buffer) at 4° C. for 30 min. Experiments were performed in technical duplicate. After washing twice in staining buffer, cells were incubated in 50 μL secondary antibody at 4° C. for 30 min. As a secondary antibody, R-Phycoerythrin (PE)-conjugated goat-anti-human IgG F(ab′)₂ (1:500 in FACS buffer; Jackson ImmunoResearch Laboratories, Inc., West Grove, PA, cat. no. 109-116-098), was used. Cells were washed twice in staining buffer, re-suspended in 30 μL FACS buffer containing Topro-3 (1:10,000 dilution) and analyzed on an iQue Screener (Intellicyt Corporation, USA). Binding curves were analyzed using non-linear regression (sigmoidal dose-response with variable slope) using GraphPad Prism V7.02 software (GraphPad Software, San Diego, CA, USA).
Binding was analyzed by flow cytometry as described above.

[2] = biological target: T1, human B7H4, full length, on cells; experiment: cell-based or functional assay
[3] = biological target: T2, pig (Sus scrofa) B7H4, full length, on HEK-293F cells (pig, UniProt Q7Z7D3 26-282 (human entry)); experiment: flow cytometry, HEK-293F cells transiently transfected with pig B7H4 [panel Pig B7H4]
T2 construct: Uniprot F1SAY4; also called pig B7H4
T2 chain: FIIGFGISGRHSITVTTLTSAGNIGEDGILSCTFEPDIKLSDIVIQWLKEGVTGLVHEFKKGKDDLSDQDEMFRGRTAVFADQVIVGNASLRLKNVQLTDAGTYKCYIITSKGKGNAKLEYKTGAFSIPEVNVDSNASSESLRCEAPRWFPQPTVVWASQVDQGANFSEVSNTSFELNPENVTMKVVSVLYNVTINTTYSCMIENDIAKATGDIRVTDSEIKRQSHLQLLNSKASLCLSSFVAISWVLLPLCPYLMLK
Protocol: as §1

[4] = biological target: T3, recombinant hIgG1 Fc-tagged cynomolgus monkey B7H4 (Creative BioMart, cat. no. VTCN1-1517R) (cynomolgus monkey, UniProt Q7Z7D3 25-259 (human entry)); experiment: BLI (Octet HTX); Fc-tagged cynomolgus B7H4 coupled to AR2G sensor, bispecific antibody in solution (monovalent B7H4 binding); 2nd experiment (average of n = 3)
T3 construct: Bought protein; also called cynomolgus monkey B7H4 extracellular domain
T3 sequence: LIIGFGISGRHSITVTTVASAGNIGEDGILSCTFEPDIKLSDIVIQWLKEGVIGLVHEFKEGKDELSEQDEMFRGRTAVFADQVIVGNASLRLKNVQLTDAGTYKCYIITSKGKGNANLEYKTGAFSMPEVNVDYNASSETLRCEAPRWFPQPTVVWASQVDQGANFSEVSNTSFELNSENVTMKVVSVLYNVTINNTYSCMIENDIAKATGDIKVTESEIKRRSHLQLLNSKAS
Protocol: In addition, the affinity of for cynomolgus monkey B7H4 was determined by BLI. […] Amine Reactive 2nd Generation (AR2G) biosensors (FortéBio, cat. no. 18-5092) were activated by reaction with 20 mM EDC (N-(3-Dimethylaminopropyl)-N′-ethylcarbodiimide hydrochloride) (FortéBio, cat. no. 18-1033) and 10 mM s-NHS (N-hydroxysulfosuccinimide sodium salt) (FortéBio, cat. no. 18-1067) for 300 s. The activated sensors were loaded with 10 μg/mL recombinant hIgG1 Fc-tagged cynomolgus monkey B7H4 (Creative BioMart, cat. no. VTCN1-1517R) in 10 mM Sodium Acetate pH 4.0 (FortéBio, cat. no. 18-1068) for 600 s and quenched with 1 M ethanolamine pH 8.5 (FortéBio, cat. no. 18-1071) for 300 s. […] A molecular mass of 150 kDa of the antibodies was used for calculations. For each antibody a reference sensor was used, which was incubated with Sample Diluent instead of antibody.
Data were acquired using Data Acquisition Software v9.0.0.49d (FortéBio) and analyzed with Data Analysis Software v9.0.0.12 (FortéBio). Data traces were corrected per antibody by subtraction of the reference sensor. The Y-axis was aligned to the last 10 s of the baseline, Interstep Correction alignment to dissociation and Savitzky-Golay filtering were applied. Data traces with a response<0.05 nm were excluded from analysis. The data was fitted with the 1:1 Global Full fit model using a window of interest for the association and dissociation times set at 100 s and 200 s respectively.
The experiment was performed as described above, with some small exceptions.

[5] = biological target: T4, rat (Rattus norvegicus) B7H4, full length, on HEK-293F cells (rat, UniProt Q501W4 25-257); experiment: flow cytometry, HEK-293F cells transfected with rat B7H4 [panel Rat B7H4]
T4 construct: Uniprot Q501W4; also called rat B7H4
T4 sequence: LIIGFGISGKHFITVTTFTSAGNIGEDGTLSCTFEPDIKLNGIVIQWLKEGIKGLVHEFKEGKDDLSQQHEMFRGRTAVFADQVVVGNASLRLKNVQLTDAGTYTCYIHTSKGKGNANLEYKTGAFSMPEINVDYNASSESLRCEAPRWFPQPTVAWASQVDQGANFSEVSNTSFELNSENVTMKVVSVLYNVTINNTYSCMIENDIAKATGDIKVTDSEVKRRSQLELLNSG
Protocol: as §1

B1: IgG1-B7H4-C1-N52S-FEAR (antibody, V domains shown)
VH: QVQLQQWGAGLLKPSETLSLTCAVYGGSFSGYYWSWIRQPPGKGLEWIGEISHSGSTNYNPSLKSRVTISIDTSKNQFSLKLTSVTAADTAVFYCARGLFNWNFDSWGQGTLVTVSS
VL: DIQMTQSPSSLSASVGDRVTITCRASQGIRNDLGWYQQKPGKAPKRLIYGASSLQSGVPSRFSGSGSGTEFTLTISSLQPEDFATYYCLQHNSYPRTFGQGTTVEIKR
notes: Full length human IgG1 with L234F, L235E, D265A, K409R (FEAR) heavy chain constant region and kappa light chain; bivalent, monospecific; also called IgG1-B7H4-C1-052S-FEAR
With B1 the “EC50 (read off the curve)” value [1] was roughly 1 mg/L.

B2: bsIgG1-huCD3-H101G-FEALxB7H4-C1-N52S-FEAR (bispecific antibody)
heavy 1: not shown
light 1: not shown
heavy 2: QVQLQQWGAGLLKPSETLSLTCAVYGGSFSGYYWSWIRQPPGKGLEWIGEISHSGSTNYNPSLKSRVTISIDTSKNQFSLKLTSVTAADTAVFYCARGLFNWNFDSWGQGTLVTVSSASTKGPSVFPLAPSSKSTSGGTAALGCLVKDYFPEPVTVSWNSGALTSGVHTFPAVLQSSGLYSLSSVVTVPSSSLGTQTYICNVNHKPSNTKVDKRVEPKSCDKTHTCPPCPAPEFEGGPSVFLFPPKPKDTLMISRTPEVTCVVVAVSHEDPEVKFNWYVDGVEVHNAKTKPREEQYNSTYRVVSVLTVLHQDWLNGKEYKCKVSNKALPAPIEKTISKAKGQPREPQVYTLPPSREEMTKNQVSLTCLVKGFYPSDIAVEWESNGQPENNYKTTPPVLDSDGSFFLYSRLTVDKSRWQQGNVFSCSVMHEALHNHYTQKSLSLSPGK
light 2: DIQMTQSPSSLSASVGDRVTITCRASQGIRNDLGWYQQKPGKAPKRLIYGASSLQSGVPSRFSGSGSGTEFTLTISSLQPEDFATYYCLQHNSYPRTFGQGTTVEIKRTVAAPSVFIFPPSDEQLKSGTASVVCLLNNFYPREAKVQWKVDNALQSGNSQESVTEQDSKDSTYSLSSTLTLSKADYEKHKVYACEVTHQGLSSPVTKSFNRGEC
notes: also called bslgG1-huCD3-H101G-FEALxB7H4-C1-N52S-FEAR; BslgG1-huCD3-H101G-FEALxB7H4-C1-N52S-FEAR
B2 was tested, and the “IC50 of T cell-mediated cytotoxicity, HCC1954 cells, highest of 4 donors” value [2] was 0.22 mg/L, the “IC50 of T cell-mediated cytotoxicity, HCC1954 cells, lowest of 4 donors” value [2] was 0.06 mg/L and the “IC50 of T cell-mediated cytotoxicity, MCF7 cells, highest of 4 donors” value [2] was 1.29 mg/L. For the same binder, the “IC50 of T cell-mediated cytotoxicity, MCF7 cells, lowest of 4 donors” value [2] was 0.55 mg/L, the “IC50 of T cell-mediated cytotoxicity, MDA-MB-468 cells, highest of 4 donors” value [2] was 0.16 mg/L and the “IC50 of T cell-mediated cytotoxicity, MDA-MB-468 cells, lowest of 4 donors” value [2] was 0.08 mg/L. For the same binder, the “IC50 of T cell-mediated cytotoxicity, NCI-H16650 cells, highest of 4 donors” value [2] was 5.07 mg/L, the “IC50 of T cell-mediated cytotoxicity, NCI-H16650 cells, lowest of 4 donors” value [2] was 1.67 mg/L and the “IC50 of T cell-mediated cytotoxicity, OVCAR3 cells, highest of 4 donors” value [2] was 1.63 mg/L. The “IC50 of T cell-mediated cytotoxicity, OVCAR3 cells, lowest of 4 donors” value [2] was 0.09 mg/L, the “IC50 of T cell-mediated cytotoxicity, SK-BR3 cells, highest of 4 donors” value [2] was 0.22 mg/L and the “IC50 of T cell-mediated cytotoxicity, SK-BR3 cells, lowest of 4 donors” value [2] was 0.09 mg/L. For the same binder, the binding result [3] was “no binding (tested: 30 µg/ml)”, the Kd [4] was 0.025 µM and the koff [4] was 0.0027 s⁻¹. It also gave a kon [4] of 120000 M⁻¹ s⁻¹.

B3: IgG1-B7H4-C5-FEAR (antibody, V domains shown)
VH: QLQLQESGPGLVKPSETLSLTCTVSGGSIKSGSYYWGWIRQPPGKGLEWIGNIYYSGSTYYNPSLRSRVTISVDTSKNQFSLKLSSVTAADTAVYYCAREGSYPNQFDPWGQGTLVTVSS
VL: EIVMTQSPATLSVSPGERATLSCRASQSVSSNLAWYQQKPGQAPRLLIYGASTRATGIPARFSGSGSGTEFTLTISSLQSEDFAVYYCQQYHSFPFTFGGGTKVEIKR
notes: Full length IgG1 FEAR, kappa; variable domains from US20190085080A1
B3: binds [5].
